Measured values published in patent US20240279325A1 (Chugai, published 2024).

molecular target: T1, human FcγRIIIa type V (allotype V158) extracellular domain with C-terminal His tag (human, UniProt P08637 17-208); assay: SPR (Biacore), antibody captured, FcγR analyte
T1 construct: also called FcγRIIIaV
T1 sequence (P08637 other isoform, or with tags, fused parts or gaps): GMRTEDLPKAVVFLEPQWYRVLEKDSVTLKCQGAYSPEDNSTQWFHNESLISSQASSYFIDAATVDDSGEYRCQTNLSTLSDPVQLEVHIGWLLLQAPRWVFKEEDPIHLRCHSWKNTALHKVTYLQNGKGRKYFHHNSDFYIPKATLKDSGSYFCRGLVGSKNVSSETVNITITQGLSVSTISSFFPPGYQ

Row | Binder | Kd [µM]
1 | IL6R-2B002/IL6R-L (antibody, human IgG1, kappa, name in EU numbering, Alterations introduced into IL6R-B3; also called P238D/E233D; copies: 2 + 2) heavy: QVQLQESGPGLVKPSETLSLTCAVSGHSISHDHAWSWVRQPPGEGLEWIGFISYSGITNYNPSLQGRVTISRDNSKNTLYLQMNSLRAEDTAVYYCARSLARTTAMDYWGEGTLVTVSSASTKGPSVFPLAPSSKSTSGGTAALGCLVKDYFPEPVTVSWNSGALTSGVHTFPAVLQSSGLYSLSSVVTVPSSSLGTQTYICNVNHKPSNTKVDKKVEPKSCDKTHTCPPCPAPDLLGGDSVFLFPPKPKDTLMISRTPEVTCVVVDVSHEDPEVKFNWYVDGVEVHNAKTKPREEQYNSTYRVVSVLTVLHQDWLNGKEYKCKVSNKALPAPIEKTISKAKGQPREPQVYTLPPSRDELTKNQVSLTCLVKGFYPSDIAVEWESNGQPENNYKTTPPVLDSDGSFFLYSKLTVDKSRWQQGNVFSCSVMHEALHNHYTQESLSLSP light: not shown | 53
2 | IL6R-BP078/IL6R-L (antibody, human IgG1, kappa, name in EU numbering, Alterations introduced into IL6R-B3; also called P238D/A330M; copies: 2 + 2) heavy: QVQLQESGPGLVKPSETLSLTCAVSGHSISHDHAWSWVRQPPGEGLEWIGFISYSGITNYNPSLQGRVTISRDNSKNTLYLQMNSLRAEDTAVYYCARSLARTTAMDYWGEGTLVTVSSASTKGPSVFPLAPSSKSTSGGTAALGCLVKDYFPEPVTVSWNSGALTSGVHTFPAVLQSSGLYSLSSVVTVPSSSLGTQTYICNVNHKPSNTKVDKKVEPKSCDKTHTCPPCPAPELLGGDSVFLFPPKPKDTLMISRTPEVTCVVVDVSHEDPEVKFNWYVDGVEVHNAKTKPREEQYNSTYRVVSVLTVLHQDWLNGKEYKCKVSNKALPMPIEKTISKAKGQPREPQVYTLPPSRDELTKNQVSLTCLVKGFYPSDIAVEWESNGQPENNYKTTPPVLDSDGSFFLYSKLTVDKSRWQQGNVFSCSVMHEALHNHYTQESLSLSP light: not shown | 78
3 | IL6R-2B172/IL6R-L (antibody, human IgG1, kappa, name in EU numbering, Alterations introduced into IL6R-B3; also called P238D/V323M; copies: 2 + 2) heavy: QVQLQESGPGLVKPSETLSLTCAVSGHSISHDHAWSWVRQPPGEGLEWIGFISYSGITNYNPSLQGRVTISRDNSKNTLYLQMNSLRAEDTAVYYCARSLARTTAMDYWGEGTLVTVSSASTKGPSVFPLAPSSKSTSGGTAALGCLVKDYFPEPVTVSWNSGALTSGVHTFPAVLQSSGLYSLSSVVTVPSSSLGTQTYICNVNHKPSNTKVDKKVEPKSCDKTHTCPPCPAPELLGGDSVFLFPPKPKDTLMISRTPEVTCVVVDVSHEDPEVKFNWYVDGVEVHNAKTKPREEQYNSTYRVVSVLTVLHQDWLNGKEYKCKMSNKALPAPIEKTISKAKGQPREPQVYTLPPSRDELTKNQVSLTCLVKGFYPSDIAVEWESNGQPENNYKTTPPVLDSDGSFFLYSKLTVDKSRWQQGNVFSCSVMHEALHNHYTQESLSLSP light: not shown | 48
4 | IL6R-2B171/IL6R-L (antibody, human IgG1, kappa, name in EU numbering, Alterations introduced into IL6R-B3; also called P238D/V323L; copies: 2 + 2) heavy: QVQLQESGPGLVKPSETLSLTCAVSGHSISHDHAWSWVRQPPGEGLEWIGFISYSGITNYNPSLQGRVTISRDNSKNTLYLQMNSLRAEDTAVYYCARSLARTTAMDYWGEGTLVTVSSASTKGPSVFPLAPSSKSTSGGTAALGCLVKDYFPEPVTVSWNSGALTSGVHTFPAVLQSSGLYSLSSVVTVPSSSLGTQTYICNVNHKPSNTKVDKKVEPKSCDKTHTCPPCPAPELLGGDSVFLFPPKPKDTLMISRTPEVTCVVVDVSHEDPEVKFNWYVDGVEVHNAKTKPREEQYNSTYRVVSVLTVLHQDWLNGKEYKCKLSNKALPAPIEKTISKAKGQPREPQVYTLPPSRDELTKNQVSLTCLVKGFYPSDIAVEWESNGQPENNYKTTPPVLDSDGSFFLYSKLTVDKSRWQQGNVFSCSVMHEALHNHYTQESLSLSP light: not shown | 57
5 | IL6R-BP106/IL6R-L (antibody, human IgG1, kappa, name in EU numbering, Alterations introduced into IL6R-B3; also called P238D/H268D; copies: 2 + 2) heavy: QVQLQESGPGLVKPSETLSLTCAVSGHSISHDHAWSWVRQPPGEGLEWIGFISYSGITNYNPSLQGRVTISRDNSKNTLYLQMNSLRAEDTAVYYCARSLARTTAMDYWGEGTLVTVSSASTKGPSVFPLAPSSKSTSGGTAALGCLVKDYFPEPVTVSWNSGALTSGVHTFPAVLQSSGLYSLSSVVTVPSSSLGTQTYICNVNHKPSNTKVDKKVEPKSCDKTHTCPPCPAPELLGGDSVFLFPPKPKDTLMISRTPEVTCVVVDVSDEDPEVKFNWYVDGVEVHNAKTKPREEQYNSTYRVVSVLTVLHQDWLNGKEYKCKVSNKALPAPIEKTISKAKGQPREPQVYTLPPSRDELTKNQVSLTCLVKGFYPSDIAVEWESNGQPENNYKTTPPVLDSDGSFFLYSKLTVDKSRWQQGNVFSCSVMHEALHNHYTQESLSLSP light: not shown | 55
6 | IL6R-2B169/IL6R-L (antibody, human IgG1, kappa, name in EU numbering, Alterations introduced into IL6R-B3; also called P238D/V323I; copies: 2 + 2) heavy: QVQLQESGPGLVKPSETLSLTCAVSGHSISHDHAWSWVRQPPGEGLEWIGFISYSGITNYNPSLQGRVTISRDNSKNTLYLQMNSLRAEDTAVYYCARSLARTTAMDYWGEGTLVTVSSASTKGPSVFPLAPSSKSTSGGTAALGCLVKDYFPEPVTVSWNSGALTSGVHTFPAVLQSSGLYSLSSVVTVPSSSLGTQTYICNVNHKPSNTKVDKKVEPKSCDKTHTCPPCPAPELLGGDSVFLFPPKPKDTLMISRTPEVTCVVVDVSHEDPEVKFNWYVDGVEVHNAKTKPREEQYNSTYRVVSVLTVLHQDWLNGKEYKCKISNKALPAPIEKTISKAKGQPREPQVYTLPPSRDELTKNQVSLTCLVKGFYPSDIAVEWESNGQPENNYKTTPPVLDSDGSFFLYSKLTVDKSRWQQGNVFSCSVMHEALHNHYTQESLSLSP light: not shown | 75
7 | IL6R-2B128/IL6R-L (antibody, human IgG1, kappa, name in EU numbering, Alterations introduced into IL6R-B3; also called P238D/Y296D; copies: 2 + 2) heavy: QVQLQESGPGLVKPSETLSLTCAVSGHSISHDHAWSWVRQPPGEGLEWIGFISYSGITNYNPSLQGRVTISRDNSKNTLYLQMNSLRAEDTAVYYCARSLARTTAMDYWGEGTLVTVSSASTKGPSVFPLAPSSKSTSGGTAALGCLVKDYFPEPVTVSWNSGALTSGVHTFPAVLQSSGLYSLSSVVTVPSSSLGTQTYICNVNHKPSNTKVDKKVEPKSCDKTHTCPPCPAPELLGGDSVFLFPPKPKDTLMISRTPEVTCVVVDVSHEDPEVKFNWYVDGVEVHNAKTKPREEQDNSTYRVVSVLTVLHQDWLNGKEYKCKVSNKALPAPIEKTISKAKGQPREPQVYTLPPSRDELTKNQVSLTCLVKGFYPSDIAVEWESNGQPENNYKTTPPVLDSDGSFFLYSKLTVDKSRWQQGNVFSCSVMHEALHNHYTQESLSLSP light: not shown | 72
8 | IL6R-BP110/IL6R-L (antibody, human IgG1, kappa, name in EU numbering, Alterations introduced into IL6R-B3; also called P238D/H268N; copies: 2 + 2) heavy: QVQLQESGPGLVKPSETLSLTCAVSGHSISHDHAWSWVRQPPGEGLEWIGFISYSGITNYNPSLQGRVTISRDNSKNTLYLQMNSLRAEDTAVYYCARSLARTTAMDYWGEGTLVTVSSASTKGPSVFPLAPSSKSTSGGTAALGCLVKDYFPEPVTVSWNSGALTSGVHTFPAVLQSSGLYSLSSVVTVPSSSLGTQTYICNVNHKPSNTKVDKKVEPKSCDKTHTCPPCPAPELLGGDSVFLFPPKPKDTLMISRTPEVTCVVVDVSNEDPEVKFNWYVDGVEVHNAKTKPREEQYNSTYRVVSVLTVLHQDWLNGKEYKCKVSNKALPAPIEKTISKAKGQPREPQVYTLPPSRDELTKNQVSLTCLVKGFYPSDIAVEWESNGQPENNYKTTPPVLDSDGSFFLYSKLTVDKSRWQQGNVFSCSVMHEALHNHYTQESLSLSP light: not shown | 64
9 | IL6R-BP100/IL6R-L (antibody, human IgG1, kappa, name in EU numbering, Alterations introduced into IL6R-B3; also called P238D/S267A; copies: 2 + 2) heavy: QVQLQESGPGLVKPSETLSLTCAVSGHSISHDHAWSWVRQPPGEGLEWIGFISYSGITNYNPSLQGRVTISRDNSKNTLYLQMNSLRAEDTAVYYCARSLARTTAMDYWGEGTLVTVSSASTKGPSVFPLAPSSKSTSGGTAALGCLVKDYFPEPVTVSWNSGALTSGVHTFPAVLQSSGLYSLSSVVTVPSSSLGTQTYICNVNHKPSNTKVDKKVEPKSCDKTHTCPPCPAPELLGGDSVFLFPPKPKDTLMISRTPEVTCVVVDVAHEDPEVKFNWYVDGVEVHNAKTKPREEQYNSTYRVVSVLTVLHQDWLNGKEYKCKVSNKALPAPIEKTISKAKGQPREPQVYTLPPSRDELTKNQVSLTCLVKGFYPSDIAVEWESNGQPENNYKTTPPVLDSDGSFFLYSKLTVDKSRWQQGNVFSCSVMHEALHNHYTQESLSLSP light: not shown | 59
10 | IL6R-BP116/IL6R-L (antibody, human IgG1, kappa, name in EU numbering, Alterations introduced into IL6R-B3; also called P238D/K326T; copies: 2 + 2) heavy: QVQLQESGPGLVKPSETLSLTCAVSGHSISHDHAWSWVRQPPGEGLEWIGFISYSGITNYNPSLQGRVTISRDNSKNTLYLQMNSLRAEDTAVYYCARSLARTTAMDYWGEGTLVTVSSASTKGPSVFPLAPSSKSTSGGTAALGCLVKDYFPEPVTVSWNSGALTSGVHTFPAVLQSSGLYSLSSVVTVPSSSLGTQTYICNVNHKPSNTKVDKKVEPKSCDKTHTCPPCPAPELLGGDSVFLFPPKPKDTLMISRTPEVTCVVVDVSHEDPEVKFNWYVDGVEVHNAKTKPREEQYNSTYRVVSVLTVLHQDWLNGKEYKCKVSNTALPAPIEKTISKAKGQPREPQVYTLPPSRDELTKNQVSLTCLVKGFYPSDIAVEWESNGQPENNYKTTPPVLDSDGSFFLYSKLTVDKSRWQQGNVFSCSVMHEALHNHYTQESLSLSP light: not shown | 72
11 | IL6R-BP102/IL6R-L (antibody, human IgG1, kappa, name in EU numbering, Alterations introduced into IL6R-B3; also called P238D/S267Q; copies: 2 + 2) heavy: QVQLQESGPGLVKPSETLSLTCAVSGHSISHDHAWSWVRQPPGEGLEWIGFISYSGITNYNPSLQGRVTISRDNSKNTLYLQMNSLRAEDTAVYYCARSLARTTAMDYWGEGTLVTVSSASTKGPSVFPLAPSSKSTSGGTAALGCLVKDYFPEPVTVSWNSGALTSGVHTFPAVLQSSGLYSLSSVVTVPSSSLGTQTYICNVNHKPSNTKVDKKVEPKSCDKTHTCPPCPAPELLGGDSVFLFPPKPKDTLMISRTPEVTCVVVDVQHEDPEVKFNWYVDGVEVHNAKTKPREEQYNSTYRVVSVLTVLHQDWLNGKEYKCKVSNKALPAPIEKTISKAKGQPREPQVYTLPPSRDELTKNQVSLTCLVKGFYPSDIAVEWESNGQPENNYKTTPPVLDSDGSFFLYSKLTVDKSRWQQGNVFSCSVMHEALHNHYTQESLSLSP light: not shown | 82
12 | IL6R-BP103/IL6R-L (antibody, human IgG1, kappa, name in EU numbering, Alterations introduced into IL6R-B3; also called P238D/S267V; copies: 2 + 2) heavy: QVQLQESGPGLVKPSETLSLTCAVSGHSISHDHAWSWVRQPPGEGLEWIGFISYSGITNYNPSLQGRVTISRDNSKNTLYLQMNSLRAEDTAVYYCARSLARTTAMDYWGEGTLVTVSSASTKGPSVFPLAPSSKSTSGGTAALGCLVKDYFPEPVTVSWNSGALTSGVHTFPAVLQSSGLYSLSSVVTVPSSSLGTQTYICNVNHKPSNTKVDKKVEPKSCDKTHTCPPCPAPELLGGDSVFLFPPKPKDTLMISRTPEVTCVVVDVVHEDPEVKFNWYVDGVEVHNAKTKPREEQYNSTYRVVSVLTVLHQDWLNGKEYKCKVSNKALPAPIEKTISKAKGQPREPQVYTLPPSRDELTKNQVSLTCLVKGFYPSDIAVEWESNGQPENNYKTTPPVLDSDGSFFLYSKLTVDKSRWQQGNVFSCSVMHEALHNHYTQESLSLSP light: not shown | 110
13 | IL6R-BP107/IL6R-L (antibody, human IgG1, kappa, name in EU numbering, Alterations introduced into IL6R-B3; also called P238D/H268E; copies: 2 + 2) heavy: QVQLQESGPGLVKPSETLSLTCAVSGHSISHDHAWSWVRQPPGEGLEWIGFISYSGITNYNPSLQGRVTISRDNSKNTLYLQMNSLRAEDTAVYYCARSLARTTAMDYWGEGTLVTVSSASTKGPSVFPLAPSSKSTSGGTAALGCLVKDYFPEPVTVSWNSGALTSGVHTFPAVLQSSGLYSLSSVVTVPSSSLGTQTYICNVNHKPSNTKVDKKVEPKSCDKTHTCPPCPAPELLGGDSVFLFPPKPKDTLMISRTPEVTCVVVDVSEEDPEVKFNWYVDGVEVHNAKTKPREEQYNSTYRVVSVLTVLHQDWLNGKEYKCKVSNKALPAPIEKTISKAKGQPREPQVYTLPPSRDELTKNQVSLTCLVKGFYPSDIAVEWESNGQPENNYKTTPPVLDSDGSFFLYSKLTVDKSRWQQGNVFSCSVMHEALHNHYTQESLSLSP light: not shown | 63
